Measurements as given in patent publication US20230374114A1 (published 2023).
Changes are numbered by the printed parent chain.

B1: Ab 26 scFv-Fc (scFv, V domains shown)
VH: QVQLVQSGGGLVQPGRSLRLSCAASGFTFDDYAMHWVRQVPGKGLEWVSGIDWNSGVIGYADSVKGRFTISRDNAKNSLYLQMNSLRAEDTALYYCAKDAYSYGFLGAFDIWGQGTMVTVSS
VL: LPVLTQPPSVSVAPGQTASITCGGDNIRTKGVHWYQQKPGQAPLLVIYYASDRPSGIPERFSGSSSGNTATLTISRVEAGDEADYYCQVWDSSSDLVVFGGGTTLTVL
B2: Ab 21 (scFv, V domains shown)
VH: QVQLVQSGGGLVQPGGSLRLSCATSGFTFDDYAMHWVRQAPGKGLEWVSGISWNSGSIGYVDSVKGRFTISRDNRNNKVYLQMNNLRAEDTAVYYCARDWWGSIDHWGLGTLVTVSS
VL: QSALTQPRSVSGSPGQSVTISCTGTSSDVGGYDYVSWYQQHPGKAPKLIIYDVSKRPSGVPDRFSGSKSGNTASLTVSGLQAEDEADYYCSSYTSSSPVVFGGGTKLTVL
B3: Ab 14 scFv-Fc (scFv, V domains shown)
VH: QVQLQQSGPGLVKPSQTLSLTCAISGDSVSSNSAAWNWIRQSPARGLEWLGRTYYRSRWYNDYAISMKSRITINPDTSKNQFSLQLESVTPEDTAVYYCAREIRGFDYWGQGTLVTVSS
VL: QSVLTQPPSASGSPGQSVTISCTGTSSDVGAYNFVSWYQHHPGKAPKLIIYDFNKRPSGVPDRFSGSKSGNTASLTVSGLQADDEADYYCSSYAGSNNFDVVFGGGTKLTVL
B4: Ab_16 (scFv, V domains shown)
VH: QVQLVQSGGGVVQPGRSLRLSCAASGFTFSNYGMHWVRQAPGKGLEWVALIWERGSKKDYADSVKGRFTVSRDNSKNTLYLQMNSLRPEDTAVYFCAREGISMTGAEYFQHWGQGTLVTVSS
VL: QSVLTQPPSVSGSPGQRVTMSCTGSSSNIGAGYDVHWYQQVPGAAPRLLIYGTNNRPSGVPDRFSGSKSGTSASLTITGLQAEDEADYYCQSYDNSLTDPYVFGTGTKVTVL
B5: Ab 27 scFv-Fc (scFv, V domains shown)
VH: QVQLVQSGTEVKKPGASVKVSCKASGYSFTGSHLHWVRQAPGQGLEWMGWINPDSGVINYAQKFQGRVTLTRDTSISTAYMELSGLRSDDTAVYYCARDKAIGYVWALDYWGQGTLVTVSS
VL: QSALTQPPSVSGSPGQSVTISCTGTSSDVGTYNRVSWYQQPPGKAPKLMIYEVSNRPSGVSNRFSGSKSGNTASLTISGLQAEDEADYYCSSYTRTFTYVFGTGTKVTVL
B6: Ab 25 scFv-Fc (scFv, V domains shown)
VH: QVQLVQSGGGLVQPGGSLRLSCAASGFTFSSYWMSWVRQAPGKGLEWVANIKQDGSEKYYVDSVKGRFTISRDNAKNSLYLQMNSLRAEDTAVYYCARGFYYYGAFDIWGQGTTVTVSS
VL: NFMLTQPHSVSESPGKTVTISCTGSSGSIASNYVQWYQQRPGSAPTTVIYEDNQRPSGVPDRFSGSIGSSSNSASLTISGLKTEDEADYYCQSYDSSNHWVFGGGTKLTVL
B7: Ab 20 (scFv, V domains shown)
VH: QVQLVQSGGGSVKPGGSLRLSCAASGYRLSDYYMHWVRQAPGKGLEWVANIKQDGSEKYYVDSVKGRFTISRDNAKNSLYLQMNSLRAEDTAVYYCARVRGWSRGYFDYWGQGTLVTVSS
VL: B6 VL with G68D, T77L
B8: Ab_18 (scFv, V domains shown)
VH: EVQLVQSGGGVVQPGRSLRVSCAASGFSFSRYGMHWVRQAPGKGLEWVAFIRHDGSKKYYADSVEGRFTISRDNSRNTVSLEMNSLRGEDTAVYYCAKDGRLEAALDDWGQGTLVTVSS
VL: NFMLTQPHSMSGSAGKTVTVSCIRSSGSIANNFVQWYQQRPGSAPTTVIYEDNQRPSGVPDRFSGSIDSSSNSASLTISGLKTEDEADYYCQSYDSSNLVFGGGTRLTVL
B9: Ab 15 scFv-Fc (scFv, V domains shown)
VH: QVQLVQSGGGLVKPGRSLRLSCTASGFTFGDYAMSWFRQAPGKGLEWVGFIRSKAYGGTTGYAASVKGRFTISRDDSKSIAYLQMNSLKTEDTAVYYCTTADDDMDVWGKGTTVTVSS
VL: NFMLTQPHSVSESPGKTVTISCTRSSGTIASNYVQWYQQRPGSAPTTVIYEDNQRPSGVPDRFSGSIDRSSNSASLTISGLTPDDEADYYCQSYDTSNHYVFGTGTKVTVL
B10: Ab_13 (scFv, V domains shown)
VH: QVTLKESGPKLVKPTQTLTLTCTFSGFSLSTSGVGVGWIRQPPGKALEWLALIYWDDDKRYSPSLKSRLTIAKDTSKYQVVLTMTNMDPVDTATYYCARISGSGYFYPFDIWGQGTMVTVSA
VL: B6 VL with G24R, G68D, H99L
B11: Ab 19 scFv-Fc (scFv, V domains shown)
VH: EVQLVESGAEVKKPGESLKISCKGSGYSFTSYWIGWVRQMPGKGLEWMGIIYPGDSDTRYSPSFQGQVTISADKSISTAYLQWSSLKASDTAMYYCARRGDLDAFDIWGQGTMVTVSS
VL: QPGLTQPPAASGTPGQRVTVSCSGASANIGSNAVSWFKQFPETAPRLLISGNTHRPSGVPDRVSGSKSGTSASLTISGLQSDDEADYYCAAWDDSLNGYVFGSGTKVTVL
B12: RBD-R3-T1-H3 (Ab_2) (scFv, V domains shown)
VH: EVQLVQSGAEVKKPGSSVKVSCKTSGYTFTTSGISWVRQAPGQGLEWMGWISAYNGNTNYAQKLQGRVTMTTDTSTSTAYMELRSLRSDDTAVYYCARDFHLYYGMDVWGKGTLVTVSS
VL: QSALTQPPSASGSPGQSVTISCTGTSSDVGAYNYVSWYQQHPGKAPKLLIYDVTKRPPGVPDRFSGSKSGNTASLTVSGLQAEDEADYYCAVWDDGLNGRVVFGGGTKLTVL
B13: Ab 30 scFv-Fc (RBD-R3-E1-A5) (scFv, V domains shown)
VH: QVQLVQSGGGVVQPGKSLRLSCTASGFTFSDFPIHWVRQAPGKGLEWVGVISYDGNIKYYGDSVKGRFTISRDNAKNSLYLQMNSLRVEDTAVYYCARGGSSFDIWGQGTTVTVSS
VL: SYELTQPPSVSEAPRQRVTISCSGSTSNIGNNAVSWYQHLPGKAPKLLIYYNERLPSGVSDRFSGSKSGTSASLAISGLRSEDEADYYCAAWDDSLSGHVVFGGGTKLTVL
B14: S1-RBD-R3-T1-C7 Ab (Ab 29) (scFv, V domains shown)
VH: QVQLQQSGPGLVKPSQTLSLTCAISGDSVSSYSDAWNWIRQSPSRGLEWLGRTYYRSKWYNDYAVSVKSRITINPDTSKNQFSLQLSSVTPEDTAVYYCAREIVATTPFRNYYYGMDVWGQGTTVTVSS
VL: NFMLTQPHSVSESPGNTVTISCTRTSGSIASNYVQWYQQRPGSSPTTVIFQDKLRPSGVPDRFSGSIDSSSNSASLTISGLKTEDEADYYCQSYDSSSLWVFGGGTKLTVL
B15: S1-R3-T1-C4 (Ab_8) (scFv, V domains shown)
VH: QVQLVQSGAEVKKPGSSVKVSCKASGGTFSSYAISWLRQAPGQGLEWMGWINPNSGGTNYAQKFQGRVTMTRDTSISTAYMELSRLRSDDTAVYYCARGSGGYYLGWGQGTLVTVSS
VL: QPGLTQPPSVSKGLRQTATLTCTGNSNNVGNQGAAWLQQHQGHPPKLLSYMNNNRPPGISERFSASRSGNTASLTITGLQPEDEADYYCSAWDSSLSRWVFGGGTKLSVL
B16: S1-RBD-R3-E1-E8 Ab (Ab 37) (scFv, V domains shown)
VH: QVQLVQSGAEVKKPGASVKVSCKASGYTFTSYGISWVRQAPGQGLEWMGWISTYNGNTNYAQKLQGRVTMTTDTSTSTAYMEVRSLRSDDTAVYYCARDVFGHFDYWGQGTLVTVSS
VL: NFMLTQPHSVSESPGKTVLISCTRSSGNIATNYVQWYQQRPGSAPTTVIYEDNQRPSGVPDRFSGSIDSSSNSASLTISGLKTEDEADYYCKSYDDGNHVFGGGTKLTVL
B17: RBD-R3-E1-B3 Ab (Ab_32) (scFv, V domains shown)
VH: QVQLVQSGAEVKKPGESLKISCKGSGYSFTSYWIGWVRQMPGKGLEWMGIIYPGDSDTRYSPSFQGQVTISADKSISTAYLQWSSLKASDTAMYYCARGWQWHDYWGQGTLVTVSS
VL: QTVVTQEPAVSVALGQTVRITCQGDSLRSYYASWYQQKPGQAPVLVVYDKDKRPSGIPDRFSGSTSGNTASLTITGAQAEDEADYYCNSRDRSDNHVVFGGGTKLTVL
B18: S1-RBD-R3-T1-D7 Ab (Ab_34) (scFv, V domains shown)
VH: QVQLVQSGVEVKKPGESLKISCKGSGYSFTSYWIGWVRQMPGKGLEWMGIIYPGDSDTRYSPSFQGQVTISADKSISTAYLQWSSLKASDTAMYYCARTTYSYGSFDYWGQGTLVTVSS
VL: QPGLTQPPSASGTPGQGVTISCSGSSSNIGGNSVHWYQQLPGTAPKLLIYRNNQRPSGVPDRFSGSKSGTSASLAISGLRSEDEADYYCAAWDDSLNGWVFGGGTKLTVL
B19: S1-RBD-R3-T1-B12 Ab (Ab_31) (scFv, V domains shown)
VH: QVQLVQSGAEVKKPGSSVKVSCKASGGTFSSYTISWVRQAPGQGLEWMGGIIPILGTPNYAQKFQDRVAITADKSTSTAYMELSSLRSEDTAVYYCAVGSGWYSGFDYWGQGTLVTVSS
VL: B6 VL with N53S, G68D, Y94F, D95H, S96N, H99P, W100V, V101I
B20: RBD-R3-E1-F5 Ab (Ab_36) (scFv, V domains shown)
VH: QVQLQQSGPGLVKPSQTLSLTCAIFGDSVTSNSAAWNWIRQSPSRGLEWLGRTYYSSKWYNDYAVSVKSRVTINADTSKNQLSLQLNSVTPEDTAVYYCARGWLRLSFDPWGQGTLVTVSS
VL: NFMLTQPHSVSESPGKTVTISCTGSSGSIASNYVQWLQQRLGSAPTTVIYEDNQRPSGVPDRFSGSIDSSSNSASLTISGLKTEDEADYYCQSYDPNNHGVVFGGGTKLTVL
B21: Ab 38 (scFv, V domains shown)
VH: QVTLKESGPTLVKPTQTLTLTCTFSGFSLTTSGVSVGWIRQPPGKALEWLALIHWDDDKRYSPSLRSRLTITRDTSKNQVVLTVTDMDPADTGTYYCASFIMTVYAEYFEDWGQGTLVTVSS
VL: EIVLTQSPATLSVSPGERATLSCRASQSVSSNLAWYQQKPGQAPRLLMYDVSTRATGIPARFSGSGSGTEFSLTISSLQSEDFAVYYCQQRGAWPLTFGGGTKVEIK

target: T1, Biotinylated SARS-CoV-2 S1 protein (ACRO, S1N-C82E8) (UniProt P0DTC2 16-685); test: BLI

Binder | Kd [nM]
B1 | 0.0875
B2 | 1.28
B3 | 0.594
B4 | 2.18
B5 | < 0.001
B6 | 10.1
B7 | 5.01
B8 | 0.121
B9 | 0.033
B10 | 1.14
B11 | 0.13

target: T1, Biotinylated SARS-CoV-2 S1 protein …; test: BLI; remark: another data set of the same source

Binder | Kd [nM]
B12 | < 0.001
B13 | 0.314
B14 | < 0.001
B1 | 0.0875
B15 | 325
B2 | 1.28
B16 | 0.907
B3 | 0.594
B17 | 0.168
B18 | 0.184
B4 | 2.18
B5 | < 0.001
B6 | 10.1
B19 | 2040
B7 | 5.01
B20 | 0.0306
B21 | 0.22
B8 | 0.121
B9 | 0.033
B10 | 1.14
B11 | 0.13
